Here are results for 20 molecules from US5773001 (American Cyanamid Company, dated 1998).

Read-outs that look alike come from different tables or passages of the source.

Experiment [1] deals with CD33 antigen (human) (UniProt P20138).
The target is the same in experiment [2]. In words: competition with 125I-labelled native antibody on HEL 92.1.7 cells; IC50 (reference) / IC50 (sample).
Experiment [3] has as its target polyepithelial mucin (PEM) antigen on cells (human) (UniProt P15941).
Experiment [4] deals with CD33 antigen (human) (UniProt P20138). The source holds these as a separate data set.
The target is the same in experiment [5]. The source holds these as a separate data set.
Experiment [6] has the same target. This is another data set of the same source.
Experiment [7] shares this target. This is another data set of the same source.
Experiment [8] has the same target. The source holds these as a separate data set.
Experiment [9] shares this target. The source holds these as a separate data set.
The target in experiment [10] is IL-2 receptor that is found on activated and functionally mature T cells, including abnormally activated leukemia cells (Homo sapiens (Human)) (UniProt P01589).
The target of experiment [11] is CD33 antigen (human) (UniProt P20138). Kind of experiment: competition with 125I-labelled native antibody on HEL 92.1.7 cells; IC50 (reference) / IC50 (sample). The source holds these as a separate data set.
Experiment [12] has the same target. The source holds these as a separate data set.
The target is the same in experiment [13]. The source holds these as a separate data set.
Experiment [14] shares this target. This is another data set of the same source.
Experiment [15] has the same target. This is another data set of the same source.
Experiment [16] shares this target. This is another data set of the same source.
Experiment [17] has the same target. The source holds these as a separate data set.
For experiment [18] the target is unchanged. This is another data set of the same source.
Experiment [19] has the same target. The source holds these as a separate data set.
Experiment [20] has the same target. This is another data set of the same source.
Experiment [21] has the same target. The source holds these as a separate data set.
Experiment [22] deals with polyepithelial mucin (PEM) antigen on cells (human) (UniProt P15941). In words: competition with 125I-labelled native antibody on A2780DDP cells; IC50 (reference) / IC50 (sample).
Target sequence in this assay (P15941 24-1255): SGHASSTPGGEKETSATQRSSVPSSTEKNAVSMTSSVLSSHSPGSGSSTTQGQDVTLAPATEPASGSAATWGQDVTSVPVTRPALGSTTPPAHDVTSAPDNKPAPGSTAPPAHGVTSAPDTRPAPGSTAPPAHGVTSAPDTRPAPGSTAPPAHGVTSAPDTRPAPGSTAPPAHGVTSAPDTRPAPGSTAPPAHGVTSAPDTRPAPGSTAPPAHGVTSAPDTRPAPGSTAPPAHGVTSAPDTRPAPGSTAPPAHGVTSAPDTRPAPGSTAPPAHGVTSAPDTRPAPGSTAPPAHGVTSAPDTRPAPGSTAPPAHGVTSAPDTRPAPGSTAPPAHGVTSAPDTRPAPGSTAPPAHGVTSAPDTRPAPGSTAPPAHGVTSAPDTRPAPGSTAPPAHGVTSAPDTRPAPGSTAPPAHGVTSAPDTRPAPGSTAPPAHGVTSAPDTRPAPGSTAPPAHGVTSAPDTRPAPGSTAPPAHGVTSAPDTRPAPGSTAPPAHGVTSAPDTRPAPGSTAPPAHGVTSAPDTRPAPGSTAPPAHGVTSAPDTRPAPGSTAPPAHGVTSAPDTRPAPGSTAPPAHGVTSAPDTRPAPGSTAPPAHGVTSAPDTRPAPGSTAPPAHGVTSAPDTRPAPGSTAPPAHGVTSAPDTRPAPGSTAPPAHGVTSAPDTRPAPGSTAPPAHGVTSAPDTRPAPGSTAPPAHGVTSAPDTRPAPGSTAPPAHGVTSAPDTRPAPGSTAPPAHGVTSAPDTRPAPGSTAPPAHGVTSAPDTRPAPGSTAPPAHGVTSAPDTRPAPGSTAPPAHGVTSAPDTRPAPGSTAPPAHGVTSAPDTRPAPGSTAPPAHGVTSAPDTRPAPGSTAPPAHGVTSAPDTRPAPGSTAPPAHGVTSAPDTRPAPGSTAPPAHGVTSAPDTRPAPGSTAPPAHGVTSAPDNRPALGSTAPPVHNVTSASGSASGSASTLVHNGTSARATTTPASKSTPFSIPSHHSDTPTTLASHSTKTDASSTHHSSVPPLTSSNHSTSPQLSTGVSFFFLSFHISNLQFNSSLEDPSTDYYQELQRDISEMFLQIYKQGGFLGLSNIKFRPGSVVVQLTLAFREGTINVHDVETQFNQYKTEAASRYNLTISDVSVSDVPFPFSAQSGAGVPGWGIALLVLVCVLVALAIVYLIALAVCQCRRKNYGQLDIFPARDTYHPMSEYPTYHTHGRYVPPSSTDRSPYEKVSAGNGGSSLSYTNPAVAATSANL
The target is the same in experiment [23]. This is another data set of the same source.
Target sequence in this assay (P15941 24-1255): as above

Turning to “Conjugate of 4-(2-oxoethoxy)benzenepropanoic acid (5) condensed with Calicheamicin N-acetyl gamma dimethyl hydrazide and m-P67.6 (antibody)”, in the experiment with CD33 antigen (human) [1], the Ex vivo inhibition of colony formation is 71 % inhibition and the In vitro IC50 (3H-thymidine incorporation) came to 0.45 ng/mL. Also, the Rel. Affinity with CD33 antigen (human) [2] is 1.11.
Take “Conjugate of 4-(4-acetylphenoxy)butanoic acid (7) condensed with Calicheamicin N-acetyl gamma dimethyl hydrazide and h-CT-M-01 (antibody)”: the In vitro IC50 (3H-thymidine incorporation) in [3] worked out at 0.048 ng/mL.
As for “Conjugate of 4-(4-acetylphenoxy)butanoic acid (7) condensed with Calicheamicin N-acetyl gamma dimethyl hydrazide and m-P67.6 (antibody)”, in the experiment with CD33 antigen (human) [2], the Rel. Affinity turned out to be 0.96. In the experiment with CD33 antigen (human) [4], this molecule showed an Ex vivo inhibition of colony formation of 98 % inhibition and an In vitro IC50 (3H-thymidine incorporation) of 0.017 ng/mL.
On to “Conjugate of 4-formyl-3-methoxyphenoxyacetic acid (3) condensed with Calicheamicin N-acetyl gamma dimethyl hydrazide and m-P67.6 (antibody)”, for which, in the experiment with CD33 antigen (human) [5], the Ex vivo inhibition of colony formation turned out to be 90 % inhibition and the In vitro IC50 (3H-thymidine incorporation) turned out to be 0.12 ng/mL. The Rel. Affinity with CD33 antigen (human) [2] was determined as 0.76.
As for “Conjugate of 3-(2-oxoethoxy)benzoic acid (6) condensed with Calicheamicin N-acetyl gamma dimethyl hydrazide and m-P67.6 (antibody)”, the In vitro IC50 (3H-thymidine incorporation) with CD33 antigen (human) [6] was determined as 0.32 ng/mL. This molecule returned a Rel. Affinity with CD33 antigen (human) [2] of 1.91.
For “Conjugate of 6-formyl-2-naphthoic acid (4) condensed with Calicheamicin N-acetyl gamma dimethyl hydrazide and m-P67.6 (antibody)”, in the experiment with CD33 antigen (human) [7], the In vitro IC50 (3H-thymidine incorporation) stood at 0.047 ng/mL. In the experiment with CD33 antigen (human) [2], the Rel. Affinity is 0.73.
In the experiment with CD33 antigen (human) [8], “Conjugate of 4-acetylbenzenebutanoic acid (19) condensed with Calicheamicin N-acetyl gamma dimethyl hydrazide and m-P67.6 (antibody)” had an Ex vivo inhibition of colony formation of 99 % inhibition and an In vitro IC50 (3H-thymidine incorporation) of 0.0082 ng/mL. This molecule returned a Rel. Affinity with CD33 antigen (human) [2] of 0.42.
In the case of “Conjugate of 4-formylphenoxyacetic acid (1) condensed with Calicheamicin N-acetyl gamma dimethyl hydrazide and m-P67.6 (antibody)”, in the experiment with CD33 antigen (human) [9], the Ex vivo inhibition of colony formation turned out to be 90 % inhibition and the In vitro IC50 (3H-thymidine incorporation) amounted to 0.068 ng/mL. In the experiment with CD33 antigen (human) [2], this molecule displayed a Rel. Affinity of 0.77.
For “Conjugate of 4-(4-acetylphenoxy)butanoic acid (7) condensed with calicheamicin N-acetyl gamma dimethyl hydrazide and anti-Tac (antibody)”, in experiment [10], the Ex vivo IC50 (inhibition of D14 CFU-GM colony growth) was found to be 1 ng/mL and the In vitro IC50 (3H-thymidine incorporation) was 0.004 ng/mL.

B1: Conjugate of 4-formyl-3-methoxyphenoxyacetic acid (3) condensed with Calicheamicin N-acetyl gamma dimethyl hydrazide and h-P67.6 (antibody, V domains shown)
VH: EVQLVQSGAEVKKPGSSVKVSCKASGYTITDSNIHWVRQAPGQSLEWIGYIYPYNGGTDYNQKFKNRATLTVDNPTNTAYMELSSLRSEDTDFYYCVNGNPWLAYWGQGTLVTVSS
VL: DIQLTQSPSTLSASVGDRVTITCRASESLDNYGIRFLTWFQQKPGKAPKLLMYAASNQGSGVPSRFSGSGSGTEFTLTISSLQPDDFATYYCQQTKEVPWSFGQGTKVEVKR
modifications: drug-linker amide on lysine side chains, sites not stated; drug-linker amide on lysine side chains, sites not stated
In turn, B1 gave a Rel. Affinity in the experiment with CD33 antigen (human) [11] of 0.81. The same molecule returned an In vitro IC50 (3H-thymidine incorporation) with CD33 antigen (human) [12] of 0.3 ng/mL.

B2: Conjugate of 4-formylbenzoic acid (2) condensed with Calicheamicin N-acetyl gamma dimethyl hydrazide and h-P67.6 (antibody, V domains shown)
VH: B1 VH
VL: B1 VL
modifications: drug-linker amide on lysine side chains, sites not stated; drug-linker amide on lysine side chains, sites not stated
In the experiment with CD33 antigen (human) [11], B2 gave a Rel. Affinity of 0.99. Also, in the experiment with CD33 antigen (human) [13], the Ex vivo inhibition of colony formation was found to be 63 % inhibition and the In vitro IC50 (3H-thymidine incorporation) was found to be 4.8 ng/mL.

B3: Conjugate of 4-(2-acetyl-1-naphthalenyl)oxy! butanoic acid (20) condensed with Calicheamicin N-acetyl gamma dimethyl hydrazide and h-P67.6 (antibody, V domains shown)
VH: B1 VH
VL: B1 VL
modifications: drug-linker amide on lysine side chains, sites not stated; drug-linker amide on lysine side chains, sites not stated
As to B3, in the experiment with CD33 antigen (human) [11], the Rel. Affinity turned out to be 0.5. Moreover, in the experiment with CD33 antigen (human) [14], the Ex vivo inhibition of colony formation was determined as 76 % inhibition and the In vitro IC50 (3H-thymidine incorporation) is 0.061 ng/mL.

B4: Conjugate of 4-(4-acetylphenoxy)butanoic acid (7) condensed with Calicheamicin N-acetyl gamma dimethyl hydrazide and h-P67.6 (antibody, V domains shown)
VH: B1 VH
VL: B1 VL
modifications: drug-linker amide on lysine side chains, sites not stated; drug-linker amide on lysine side chains, sites not stated
Take B4: the Rel. Affinity with CD33 antigen (human) [11] is 0.75. In the experiment with CD33 antigen (human) [15], this molecule came in with an Ex vivo inhibition of colony formation of 96 % inhibition and an In vitro IC50 (3H-thymidine incorporation) of 0.098 ng/mL.

B5: Conjugate of 4-(2-oxoethoxy)benzenepropanoic acid (5) condensed with Calicheamicin N-acetyl gamma dimethyl hydrazide and h-P67.6 (antibody, V domains shown)
VH: B1 VH
VL: B1 VL
modifications: drug-linker amide on lysine side chains, sites not stated; drug-linker amide on lysine side chains, sites not stated
B5: the Rel. Affinity with CD33 antigen (human) [11] was determined as 1.09. Moreover, the In vitro IC50 (3H-thymidine incorporation) with CD33 antigen (human) [16] was found to be 2.22 ng/mL.

B6: Conjugate of 4-formylphenoxyacetic acid (1) condensed with Calicheamicin N-acetyl gamma dimethyl hydrazide and h-P67.6 (antibody, V domains shown)
VH: B1 VH
VL: B1 VL
modifications: drug-linker amide on lysine side chains, sites not stated; drug-linker amide on lysine side chains, sites not stated
Turning to B6, the Rel. Affinity with CD33 antigen (human) [11] turned out to be 0.65. Further, in the experiment with CD33 antigen (human) [17], the Ex vivo inhibition of colony formation was 95 % inhibition and the In vitro IC50 (3H-thymidine incorporation) is 0.23 ng/mL.

B7: Conjugate of 4-acetylbenzenebutanoic acid (19) condensed with Calicheamicin N-acetyl gamma dimethyl hydrazide and h-P67.6 (antibody, V domains shown)
VH: B1 VH
VL: B1 VL
modifications: drug-linker amide on lysine side chains, sites not stated; drug-linker amide on lysine side chains, sites not stated
For B7, the Rel. Affinity in the experiment with CD33 antigen (human) [11] came to 0.5. In the experiment with CD33 antigen (human) [18], this molecule registered an Ex vivo inhibition of colony formation of 99 % inhibition and an In vitro IC50 (3H-thymidine incorporation) of 0.012 ng/mL.

B8: Conjugate of 4-(4-acetylphenoxy)butanoic acid (7) condensed with calicheamicin gamma dimethyl hydrazide and h-P67.6 (antibody, V domains shown)
VH: B1 VH
VL: B1 VL
modifications: drug-linker amide on lysine side chains, sites not stated; drug-linker amide on lysine side chains, sites not stated
Regarding B8, in the experiment with CD33 antigen (human) [11], the Rel. Affinity came out at 0.78. The same molecule had an In vitro IC50 (3H-thymidine incorporation) in the experiment with CD33 antigen (human) [19] of 0.001 ng/mL.

B9: Conjugate of 4-(4-formylphenoxy)butanoic acid (9) condensed with Calicheamicin N-acetyl gamma dimethyl hydrazide and h-P67.6 (antibody, V domains shown)
VH: B1 VH
VL: B1 VL
modifications: drug-linker amide on lysine side chains, sites not stated; drug-linker amide on lysine side chains, sites not stated
In the case of B9, in the experiment with CD33 antigen (human) [11], the Rel. Affinity was 0.56. Further, in the experiment with CD33 antigen (human) [20], the Ex vivo inhibition of colony formation worked out at 98 % inhibition and the In vitro IC50 (3H-thymidine incorporation) is 0.52 ng/mL.

B10: Conjugate of 3-(2-oxoethoxy)benzoic acid (6) condensed with Calicheamicin N-acetyl gamma dimethyl hydrazide and h-P67.6 (antibody, V domains shown)
VH: B1 VH
VL: B1 VL
modifications: drug-linker amide on lysine side chains, sites not stated; drug-linker amide on lysine side chains, sites not stated
The molecule B10 returned a Rel. Affinity with CD33 antigen (human) [11] of 1.19. The In vitro IC50 (3H-thymidine incorporation) with CD33 antigen (human) [21] was found to be 0.69 ng/mL.

B11: Conjugate of 4-formyl-3-methoxyphenoxyacetic acid (3) condensed with Calicheamicin N-acetyl gamma dimethyl hydrazide and m-CT-M-01 (antibody, V domains shown)
VH: QIQLQQSGPELVKPGASVKISCKASGYTFTDYYINWMKQKPGQGLEWIGWIDPGSGNTKYNEKFKGKATLTVDTSSSTAYMQLSSLTSEDTAVYFCAREKTTYYYAMDYWGQGTSVTVSA
VL: DIVMTQAAPSVPVTPGESLSISCRSSKSLLHSNGDTFLYWFLQRPGQSPQLLIYRMSNLASGVPDRFSGSGSGTAFTLRVSRVEAEDVGVYYCMQHLEYPFTFGAGTKLELKR
modifications: drug-linker amide on lysine side chains, sites not stated; drug-linker amide on lysine side chains, sites not stated
Consider B11, for which the Rel. Affinity in experiment [22] came out at 0.88. The molecule further yielded an In vitro IC50 (3H-thymidine incorporation) in [23] of 5.6 ng/mL.
